Measurements reported in paper PMC5888981, “Scopoletin 8-hydroxylase: a novel enzyme involved in coumarin biosynthesis and iron-deficiency responses in Arabidopsis” (Journal of Experimental Botany, 2018).

Substrate: COc1cc2ccc(=O)oc2cc1O
Test: purified protein
Assay type: biochemical, Arabidopsis thaliana
Conditions: Fe2+, 2-oxoglutarate and ascorbate, pH 8.0 (methods b28 say optimal pH 7.0), 31.5 °C, 10 min, 0.1 M potassium phosphate

B1: S8H (scopoletin 8-hydroxylase; At3g12900 oxidoreductase) (Arabidopsis thaliana) (protein)
chain: GINFEDQTTLFNFVVREGNGVKGMIDSGLSSVPRPFVQPLSERIPTQKALTCEATQPIDLSNLDGPQHKEVAKQIVEAAETLGFFQVVNHGVSVELLELLKSSAHEFFAQAPEEKSMYLKEVSPSKLVKYGTSFVPDKEKAIEWKDYVSMLYTNDSEALQHWPQPCREVALEFLNSSMEMVKNVVNILMENVGVTLEEEKMNGLMGTKMVNMNYYPTCPSPELTVGVGRHSDMGMLTVLLQDGIGGLYVKLDNGEWAEIPPVHGALVINIGDTLQILSNGKYKSAEHRVRTTNIGSRVSVPIFTAPNPSQKVGPLPEVVKRDGVARYKEFLFQDYMNNFFGQPHDGKKSLDFARAE
notes: S8H ORF in pET28a+ (BamHI/XhoI), 6xHis-tagged, no tag removal described; E. coli Rosetta 2; TALON purified
  Km: 11 ± 2 µM
  kcat: 1.73 ± 0.09 s^–1
